Reference: US20200277377A1 (WUXI BIOLOGICS SHANGHAI, published 2020)

T1: full length human CTLA-4 on cells (human, UniProt P16410 36-223)
T1 construct: whole, on cells; also called CTLA-4-expressing cell line
T1 sequence (looked up): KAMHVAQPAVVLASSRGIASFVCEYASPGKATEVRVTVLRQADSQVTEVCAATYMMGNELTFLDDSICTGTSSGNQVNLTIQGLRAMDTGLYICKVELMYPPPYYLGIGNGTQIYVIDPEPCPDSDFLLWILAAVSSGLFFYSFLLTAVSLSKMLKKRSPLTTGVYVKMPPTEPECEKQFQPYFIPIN

T2: monkey CTLA-4 (Example 3 ELISA, construct not stated) (cynomolgus monkey, UniProt G7PL88 36-161)
T2 construct: also called cyno CTLA-4
T2 sequence: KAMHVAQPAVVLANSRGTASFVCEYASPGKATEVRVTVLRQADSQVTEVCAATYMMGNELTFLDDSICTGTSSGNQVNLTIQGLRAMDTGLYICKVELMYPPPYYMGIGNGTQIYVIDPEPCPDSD

T3: human CTLA-4 (Example 3 ELISAs, construct not stated) (human, UniProt P16410 36-161)
T3 sequence (looked up): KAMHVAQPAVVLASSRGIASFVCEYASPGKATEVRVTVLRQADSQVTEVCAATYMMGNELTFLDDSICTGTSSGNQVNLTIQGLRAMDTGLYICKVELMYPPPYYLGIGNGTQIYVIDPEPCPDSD

T4: human CTLA-4.ECD-6×His (human, UniProt P16410 36-161)
T4 construct: extracellular domain; also called WBP316.hCTLA-4.ECD-6×His; hCTLA4-His (WT)
T4 sequence: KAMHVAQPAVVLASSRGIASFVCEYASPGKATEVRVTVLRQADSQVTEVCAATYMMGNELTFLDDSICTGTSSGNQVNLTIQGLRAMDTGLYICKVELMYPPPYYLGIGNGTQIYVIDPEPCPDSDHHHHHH

T5: biotinylated human CTLA-4 (Example 3 FACS competition) (human, UniProt P16410 36-161, limits assumed, biotinylated (sites not given))
T5 sequence (looked up): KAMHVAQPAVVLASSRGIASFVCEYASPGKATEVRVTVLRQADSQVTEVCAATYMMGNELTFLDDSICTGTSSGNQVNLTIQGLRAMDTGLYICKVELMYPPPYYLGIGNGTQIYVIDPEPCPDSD


Assays:
[1] = biological target: T1, full length human CTLA-4 on cells; test: FACS on CTLA-4-expressing cell line
[2] = biological target: T2, monkey CTLA-4 (Example 3 ELISA, …); test: ELISA, antibody titrated on cyno CTLA-4, OD450
Method: (§1) The antibodies were tested on CTLA-4-binding ELISA.
(§2) ELISA was used to test binding of anti-human CTLA-4 antibodies to human, murine and cynomolgus monkey CTLA-4 protein. A 96-well plate was coated with human CTLA-4.ECD-6×His (1.0 μg/mL), cynomoguls monkey CTLA-4.ECD-6×His (0.5 μg/mL) or mouse CTLA-4.ECD-6×His (0.5 μg/mL) at 4° C. for 16-20 hours. After 1 hour blocking with 2% BSA in DBPS, testing antibodies, as well as positive and negative control antibodies were added to the plates and incubated at room temperature for 1 hour. The binding of the antibodies to the plates were detected by HRP-conjugated goat anti-human IgG antibody (1:5000 dilution) with 1 hour incubation. The color was developed by dispensing 100 μL of TMB substrate for 8 mins, and then stopped by 100 μL of 2N HCl.

[3] = biological target: T3, human CTLA-4 (Example 3 ELISAs, …); test: ELISA, antibody titrated on human CTLA-4, OD450
Method: as §1, §2

[4] = biological target: T6, murine CTLA-4 (Example 3 ELISA, construct not stated) (mouse, UniProt P09793 36-161, limits assumed); test: ELISA, antibody titrated on mouse CTLA-4, OD450
T6 construct: also called mouse CTLA-4
Method: as §1, §2

human CTLA-4.ECD-6×His [5] = biological target: T4, human CTLA-4.ECD-6×His; test: SPR, antibody captured on anti-human Fc, CTLA-4 ECD as analyte, 1:1 fit
Method: The binding kinetics of four antibodies were measured using SPR. The antibodies were captured on immobilized goat anti-human Fc, and then human CTLA-4 ECD at different concentration was injected orderly. The sensorgrams for reference channel and buffer channel were subtracted from the test sensorgrams. The data was used to fit in 1:1 binding analysis.
(§3) Biacore T200, Series S Sensor Chip CMS, Amine Coupling Kit, and 10×HBS-EP were purchased from GE Healthcare. […] In immobilization step, the activation buffer was prepared by mixing 400 mM EDC and 100 mM NHS immediately prior to injection. The CM5 sensor chip was activated for 420 s with the activation buffer. 30 μg/mL of goat anti-human IgG Fcγ antibody in 10 mM NaAc (pH 4.5) was then injected to Fc1-Fc4 channels for 200 s at a flow rate of 5 μL/min. The chip was deactivated by 1 M ethanolamine-HCl (GE). Then the antibodies were captured on the chip. Briefly, 4 μg/mL antibodies in running buffer (HBS-EP+) was injected individually to Fc3 channel for 30 s at a flow rate of 10 μL/min. […] Regeneration buffer (10 mM Glycine pH 1.5) was injected at 10 μL/min for 30 s following every dissociation phase.

human CTLA-4.ECD-6×His [6] = biological target: T4, human CTLA-4.ECD-6×His; test: SPR, antibody captured on anti-human Fc, CTLA-4.ECD-6×His as analyte, 1:1 fit
Method: as §3
(§4) The binding kinetics of these antibodies were measured using SPR. The antibodies were captured on immobilized anti-human Fc and CTLA-4-ECD at different concentration was injected orderly. The sensorgrams for reference channel and buffer channel were subtracted from the test sensorgrams. The data was used for 1:1 binding analysis on human, monkey and mouse CTLA-4.ECD-6×His.

[7] = biological target: T7, cynomolgus monkey CTLA-4 ECD-6×His (cynomolgus monkey); test: as above
T7 construct: extracellular domain; Bought; also called cynomoguls monkey CTLA-4.ECD-6×His
Method: as §3, §4

[8] = biological target: T3, human CTLA-4 (Example 3 ELISAs, …); test: competition ELISA: coated human CTLA-4, antibody mixed with biotinylated CD80, bound ligand detected with streptavidin-HRP [A) CD80]
Method: (§5) Both ELISA and FACS were used as the competition assays. In ELISA based competition assay, human CTLA-4 was coated on the plates, and the antibodies mixed with biotinylated ligands were added into the plate. The bound ligands were detected by HRP conjugated streptavidin.

[9] = biological target: T3, human CTLA-4 (Example 3 ELISAs, …); test: competition ELISA: coated human CTLA-4, antibody mixed with biotinylated CD86, bound ligand detected with streptavidin-HRP [B) CD86]
Method: as §5
Plates were coated with human CTLA-4.ECD.hFc (0.5 μg/mL) at 4° C. for 16-20 hours. […] After washing three times with PBS containing 0.05% Tween 20, biotinylated anti-His tag antibody was 1:2000 diluted and added. The plates were incubated at room temperature for 1 hour. The bound ligands were detected by HRP conjugated streptavidin (1:20000).

[10] = biological target: T5, biotinylated human CTLA-4 (Example 3 …); test: competition FACS: antibody mixed with biotinylated human CTLA-4, added to CD86-expressing cells (panel title W316-CHO-K1.hPro1.L2), bound CTLA-4 detected with streptavidin-PE [B]
Method: as §5
(§6) Then the mixtures of antibody and CTLA-4 were added to the cells and incubated for 1 hour at 4° C. The cells were washed two times with 200 μL FACS buffer (DPBS containing 1% BSA). Streptavidin PE 1 to 333 diluted in FACS buffer was added to the cells and incubated at 4° C. for 1 hour.

[11] = biological target: T5, biotinylated human CTLA-4 (Example 3 …); test: competition FACS: antibody mixed with biotinylated human CTLA-4, added to CD80-expressing cells (panel title W316-CHO-K1.hPro1.L1), bound CTLA-4 detected with streptavidin-PE [A]
Method: as §5, §6

[12] = biological target: T6, murine CTLA-4 (Example 3 ELISA, …); test: ELISA; ELISA, murine CTLA-4
Method: as §1, §2

Murine CTLA-4.ECD-6×His = biological target: T8, Murine CTLA-4.ECD-6×His (mouse, UniProt P09793 36-161); test: SPR, antibody captured on anti-human Fc, CTLA-4.ECD-6×His as analyte, 1:1 fit
T8 construct: extracellular domain; Bought; also called mouse CTLA-4.ECD-6×His; mouse CTLA-4 ECD
Method: as §3, §4

Binder	EC50 [1] [nM]	EC50 (read off the curve) [2] [nM]	EC50 (read off the curve) [3] [nM]	binding result [4]	Kd (human CTLA-4.ECD-6×His [5]) [nM]	koff (human CTLA-4.ECD-6×His [5]) [s⁻¹]	kon (human CTLA-4.ECD-6×His [5]) [M⁻¹ s⁻¹]	Kd (human CTLA-4.ECD-6×His [6]) [nM]	koff (human CTLA-4.ECD-6×His [6]) [s⁻¹]	kon (human CTLA-4.ECD-6×His [6]) [M⁻¹ s⁻¹]	Kd [7] [nM]	koff [7] [s⁻¹]	kon [7] [M⁻¹ s⁻¹]	IC50 (read off the curve) [8] [nM]	IC50 (read off the curve) [9] [nM]	IC50 (read off the curve) [10] [nM]	also measured
W3162-1.145.10 xAb.IgG1 (antibody, V domains shown, Chimeric: rat variable regions fused with constant region of human antibody (label xAb.IgG1)) VH: EVQLVESGGGLVQPGRSLKLSCAASDLTFSNYDMAWVRQTPTKGLEWVASISPNGGNTYYRDSVKGRFTVSRDNAKNSLYLQMDSLRSEDTATYYCARHLWFAYWGQGTLVTVSS VL: DIQMTQSPSSMSASLGDRVTISCQASQDIGSNLIWFQQKPGKSPRPMIYYATHLADGVPSRFSGSRSGSDYSLTISSLESEDVADYHCLQYKQYPRTFGGGTKLELK	–	~0.1	~0.01	no binding (tested: about 20 nM)	2.08	0.0165	7.93e+06	2.08	0.0165	7.93e+06	0.355	0.00377	1.06e+07	~0.3	~0.4	~0.3	IC50 (read off the curve) [11]: ~1 nM
W3162-1.101.2 xAb.IgG1 (antibody, V domains shown, Chimeric: rat variable regions fused with constant region of human antibody (label xAb.IgG1)) VH: EEQLVESGGGLVQPGKSLKLSCSASGFTFRSSAMHWIRQPPGKGLDWVAFISSGGDTAYADAVKGRFIVSRDNAENTLFLQLNSLKSEDTAIYYCVRMERIPTWGQGVMVTVSS VL: DIVLTQSPVLAVSLGQRATISCRASQSVSISSINLIHWYQQRPGQQPKLLIYRTSNLASGIPARFSGSGSGTDFTLSIDPVQADDVADYYCQQSRESPLTFGSGTKLEIK	–	~0.1	~0.04	no binding (tested: about 20 nM)	0.1	6.97e-05	695000	–	–	–	–	–	–	–	~0.5	~20	–

Continued, in another order:

EC50 [1] [nM]	EC50 (read off the curve) [2] [nM]	EC50 (read off the curve) [3] [nM]	binding result [4]	Kd (human CTLA-4.ECD-6×His [5]) [nM]	koff (human CTLA-4.ECD-6×His [5]) [s⁻¹]	kon (human CTLA-4.ECD-6×His [5]) [M⁻¹ s⁻¹]	Kd (human CTLA-4.ECD-6×His [6]) [nM]	koff (human CTLA-4.ECD-6×His [6]) [s⁻¹]	kon (human CTLA-4.ECD-6×His [6]) [M⁻¹ s⁻¹]	Kd [7] [nM]	koff [7] [s⁻¹]	kon [7] [M⁻¹ s⁻¹]	IC50 (read off the curve) [8] [nM]	IC50 (read off the curve) [9] [nM]	IC50 (read off the curve) [10] [nM]	Binder	also measured
1.26	~0.08	~0.05	no binding (tested: about 20 nM)	0.068	0.000125	1.85e+06	0.068	0.000125	1.85e+06	0.0872	0.000109	1.25e+06	~0.3	~0.4	~0.08	W3162-1.154.8 xAb.IgG1 (antibody, V domains shown, Chimeric: rat variable regions fused with constant region of human antibody (label xAb.IgG1)) VH: EVQLQQSGPEAGRPGSSVKISCKASGYTFTNYFMNWVKQSPGQGLEWIGRVDPENGRADYAEKFKKKATLTADTTSNTAYIHLSSLTSEDTATYFCARRAMDNYGFAYWGQGTLVTVSS VL: EIMLTQSPTIMAASLGEKITITCSANSSLSYMYWFQQKSGASPKLWVHGTSNLASGVPDRFSGSGSGTSYYLTINTMEAEDAATYFCHHWSNTQWTFGGGTKLELK	–
–	–	–	–	–	–	–	1.84	0.0135	7.37e+06	0.598	0.00271	4.52e+06	–	–	–	W3162_1.145.10-z7-uAb.IgG1K (antibody, V domains shown, Humanized; label says IgG1K; also called W145) VH: EVQLVESGGGLVQPGGSLRLSCAASDLTFSNYDMAWVRQAPGKGLEWVASISPSGGNTYYRDSVKGRFTISRDNAKNSLYLQMNSLRAEDTAVYYCARHLWFAYWGQGTLVTVSS VL: DIQMTQSPSSLSASVGDRVTITCQASQDIGSNLIWFQQKPGKAPKPMIYYATHLADGVPSRFSGSRSGTDYTLTISSLQPEDFATYYCLQYKQYPRTFGGGTKVEIK	–
3.25	~0.1	~0.04	–	0.208	0.000148	709000	0.208	0.000148	709000	0.369	0.000107	291000	~0.7	~0.8	~1	W3162-1.146.19 xAb.IgG1 (antibody, V domains shown, Chimeric: rat variable regions fused with constant region of human antibody (label xAb.IgG1)) VH: EVQLQESGPGLVKPSQSLSLTCSVTYHTITSGYDWTWIRKFPGNQMEWMGYISYSGNTNYNPSLKSRISITRDTSKNQFFLHLNSVTSEDTATYYCASMMVPHYYVMDAWGQGASVTVSS VL: DVVLTQTPPTSSATIGQSVSISCRSSQSLLNSDGNTYLYWYLQRPSQSPQLLIYLVSKLGSGVPNRFSGSGSGTDFTLKISGVEAEDLGLYYCVQGTHDPWTFGGGTKLELK	EC50 [12]: 0.01 nM; Kd (Murine CTLA-4.ECD-6×His): 0.906 nM; koff (Murine CTLA-4.ECD-6×His): 0.000228 s⁻¹; kon (Murine CTLA-4.ECD-6×His): 251000 M⁻¹ s⁻¹
